Series [1] deals with 9-mer (SEQ ID NO:12) PRCGNPDVA
Series [2] has as its system 10-mer (SEQ ID NO:13) NYNFFPRKPK
Series [3] concerns 19-mer (SEQ ID NO:11) PRCGNPDVANYNFFPRKPK

Chain of Active MMP-9 enzyme (chain, as listed by the source): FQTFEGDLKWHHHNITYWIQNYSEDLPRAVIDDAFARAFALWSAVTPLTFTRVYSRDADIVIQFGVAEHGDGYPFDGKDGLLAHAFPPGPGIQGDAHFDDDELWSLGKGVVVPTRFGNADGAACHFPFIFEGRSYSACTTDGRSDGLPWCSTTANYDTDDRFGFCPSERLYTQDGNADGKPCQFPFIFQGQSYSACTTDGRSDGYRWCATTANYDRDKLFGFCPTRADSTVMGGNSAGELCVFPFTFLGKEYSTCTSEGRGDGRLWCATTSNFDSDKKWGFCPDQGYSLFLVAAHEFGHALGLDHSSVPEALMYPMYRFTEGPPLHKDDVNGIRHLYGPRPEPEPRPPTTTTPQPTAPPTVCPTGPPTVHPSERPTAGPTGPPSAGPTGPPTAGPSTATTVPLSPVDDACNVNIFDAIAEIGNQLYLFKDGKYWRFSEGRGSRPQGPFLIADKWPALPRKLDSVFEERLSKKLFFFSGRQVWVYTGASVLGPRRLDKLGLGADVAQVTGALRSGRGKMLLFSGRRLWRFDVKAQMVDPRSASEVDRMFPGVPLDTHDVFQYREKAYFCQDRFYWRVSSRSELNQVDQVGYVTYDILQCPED

Take Active MMP-9 enzyme: the “extended time course of MMP-9 catalyzed hydrolysis of collagen” value in series [1] is recorded as “The 10-mer is less effective at preventing the destruction of collagen at long time points (FIG. 9) than is the 9-mer (FIG. 10)”; in series [2], “The 10-mer is less effective at preventing the destruction of collagen at long time points (FIG. 9) than is the 9-mer (FIG. 10)”; in series [3], “the 19-mer effectively inhibits the MMP-9 catalyzed hydrolysis of collagen to beyond 1000 minutes”.

(Values after patent publication US20040127421.)
